Where only a bound is given, the exact number is not on record here.

Two substances from publication PMC9445010 can be followed below.

The target in test [1] is pMMO monomer consisting of PmoA, PmoB, and PmoC (Methylococcus capsulatus (Bath) (endogenous in M. capsulatus (Bath))) (UniProt Q607G3). Briefly: cryo-EM structure; cryoET with subtomogram averaging of isolated M. capsulatus (Bath) membranes, no detergent; 25 mM PIPES pH 7.3, 250 mM NaCl; single trimer 4.8 Å, 7-particle unit 10 Å, three trimers 12 Å; 3-fold symmetry applied.

The target in test [2] is particulate methane monooxygenase (pMMO) trimer (Methylococcus capsulatus (Bath) (endogenous in M. capsulatus (Bath))) (UniProt Q607G3).

In test [1], “pMMO monomer consisting of PmoA, PmoB, and PmoC (from UniProt Q607G3 1-247; G1UBD1 33-414) (complex)” displayed a stoichiometry N of 3.

In test [2], “particulate methane monooxygenase (pMMO) trimer (from UniProt Q607G3 1-247; G1UBD1 33-414) (complex)” yielded a methane oxidation activity of SEC fractions with larger pMMO nanodisc arrays against single particle nanodiscs (13C-methanol by GC/MS, duroquinol reductant, 45 °C) of under 3 fold.

In general, stoichiometry N refers to a count of units in the complex or per binding partner.
